Test results reported in publication PMC2841635.

Molecular target: purified tagged Ack1 (HA-tagged Ack1 in methods and Fig. S1B; Myc-tagged Ack1 in the results) (UniProt Q07912)
Assay: co-IP; in vitro binding assay: 50 nM of purified Ack and AKT in mRLB (25 mM Tris pH 7.5, 175 mM NaCl, 1% Triton X-100, 10% glycerol), 30 mins at room temperature, then anti-Ack1 antibodies and Protein-A-sepharose overnight at 4°C; IB with anti-AKT antibody

UniProt Q07912, sequence (Q07912 whole entry): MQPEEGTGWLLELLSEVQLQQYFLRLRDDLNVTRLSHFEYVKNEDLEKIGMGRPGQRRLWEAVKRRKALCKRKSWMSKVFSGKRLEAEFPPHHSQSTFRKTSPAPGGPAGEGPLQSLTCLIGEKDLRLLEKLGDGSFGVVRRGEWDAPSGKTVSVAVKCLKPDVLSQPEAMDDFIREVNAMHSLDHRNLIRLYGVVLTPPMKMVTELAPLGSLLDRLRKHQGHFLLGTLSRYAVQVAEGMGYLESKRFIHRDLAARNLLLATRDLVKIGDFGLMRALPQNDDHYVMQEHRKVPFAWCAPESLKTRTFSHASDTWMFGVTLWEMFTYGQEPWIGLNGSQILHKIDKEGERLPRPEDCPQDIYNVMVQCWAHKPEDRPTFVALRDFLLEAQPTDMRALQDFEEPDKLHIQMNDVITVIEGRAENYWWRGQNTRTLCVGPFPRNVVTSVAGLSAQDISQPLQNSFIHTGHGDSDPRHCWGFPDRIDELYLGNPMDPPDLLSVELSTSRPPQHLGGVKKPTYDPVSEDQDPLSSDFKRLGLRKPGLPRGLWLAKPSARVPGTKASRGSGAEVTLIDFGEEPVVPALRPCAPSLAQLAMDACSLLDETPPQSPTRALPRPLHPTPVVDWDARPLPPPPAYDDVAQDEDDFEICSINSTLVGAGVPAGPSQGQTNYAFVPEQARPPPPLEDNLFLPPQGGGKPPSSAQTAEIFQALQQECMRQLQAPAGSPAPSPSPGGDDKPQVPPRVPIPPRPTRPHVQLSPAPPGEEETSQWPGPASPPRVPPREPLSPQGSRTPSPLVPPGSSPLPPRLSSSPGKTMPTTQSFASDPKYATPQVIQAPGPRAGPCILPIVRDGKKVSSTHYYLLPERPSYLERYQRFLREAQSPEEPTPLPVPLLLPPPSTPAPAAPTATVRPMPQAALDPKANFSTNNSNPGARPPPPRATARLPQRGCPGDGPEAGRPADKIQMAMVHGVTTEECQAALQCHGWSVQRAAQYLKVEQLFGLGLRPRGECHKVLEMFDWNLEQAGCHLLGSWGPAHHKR

percent of total AKT in complex with Ack1: 6.35%
Substance: HA-tagged AKT expressed in HEK293T/HEK293 cells (from UniProt P31749 1-480) (enzyme)
